Data: patent US20260022169A1 (published 2026)

Target: T1, CLDN18.2 (UniProt P56856 1-261)
T1 chain: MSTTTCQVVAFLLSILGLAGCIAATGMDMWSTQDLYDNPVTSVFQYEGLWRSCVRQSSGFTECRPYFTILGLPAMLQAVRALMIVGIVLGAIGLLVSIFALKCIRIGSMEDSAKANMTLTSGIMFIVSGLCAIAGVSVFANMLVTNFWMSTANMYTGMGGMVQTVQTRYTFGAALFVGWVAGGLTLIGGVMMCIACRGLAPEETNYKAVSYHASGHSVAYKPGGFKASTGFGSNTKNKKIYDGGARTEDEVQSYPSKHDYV
Assay: FACS binding, MC38/CD47/CLDN18.2 cells

B1: hu28 (antibody, V domains shown)
VH: QVQLVQSGAEVKKPGASVKVSCKASGYTFTNWVHWVRQAPGQGLEWMGEINPTNARSNYNEKFKKRVTMTRDTSTSTVYMELSSLRSEDTAVYYCARIYYGNSFAHWGQGTLVTVSS
VL: DIVMTQSPDSLAVSLGERATINCKSSQSLLNAGNQKNYLTWYQQKPGQPPKLLIYWSSTRESGVPDRFSGSGSGTDFTLTISSLQAEDVAVYHCQNNYYYPLTFGGGTKLEIKR
  EC50: 3.24 nM
